How the values were obtained:
[1] = biological target: T1, mouse B7-H4 on cells (MC38-mH4 and E.G7-OVA-mH4 overexpressing) (mouse, UniProt Q7TSP5 25-257); test: flow cytometry on MC38-mH4 cells
T1 construct: whole, on cells; The species of the overexpressed protein is read from the label mH4
T1 sequence (looked up): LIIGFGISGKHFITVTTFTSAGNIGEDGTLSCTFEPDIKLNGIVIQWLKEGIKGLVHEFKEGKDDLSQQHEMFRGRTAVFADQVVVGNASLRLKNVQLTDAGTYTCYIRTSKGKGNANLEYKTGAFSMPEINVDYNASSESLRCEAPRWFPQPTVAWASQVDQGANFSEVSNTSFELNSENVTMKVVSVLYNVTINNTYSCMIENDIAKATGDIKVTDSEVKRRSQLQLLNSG
Experimental: (1) Resuspension of cells: After trypsin digestion, cells were centrifuged, the supernatant was discarded, and the cells were resuspended in PBS containing 1% (v/v) FBS and counted to adjust the concentration to 2×10⁶ cells/mL. [0126] (2) Setting controls: For a blank control, an isotype control, and samples to be tested, 100 μL of the resuspended cells in step (1) was added to each tube, so that each tube contains 2×10⁵ cells. [0127] […] A negative control tube was added with 50 μL of negative single-chain antibody, which was the monoclonal single-chain antibody that was negative in ELISA in Example 3. Tubes to be tested were respectively added with 50 μL of antibody candidates (i.e., Npsc-A8, Npsc-E7, Npsc-G10). The mixture in tubes was fully mixed, and incubated at 4° C. for 30 mins. During the incubation, the tubes were shaken every 10 mins to allow the cells to be fully reacted with the antibodies. [0128] (4) Washing of cells: An appropriate amount of PBS containing 1% (v/v) FBS was added to each tube. The tubes were centrifuged at 2000 rpm for 3 mins, and the supernatant was discarded. [0129] (5) Resuspension of cells: The cells in each tube were resuspended in 100 μL of PBS containing 1% FBS. [0130] […]

[2] = biological target: T2, Human B7-H4 protein (Sino Biological, Cat #10738-H08H-100) (human, UniProt Q7Z7D3 25-258); test: ELISA, human B7-H4 protein coated at 2 µg/mL, scFv titrated from 20 to 0.05 µg/mL
T2 construct: Bought protein; also called hB7-H4 protein
T2 sequence: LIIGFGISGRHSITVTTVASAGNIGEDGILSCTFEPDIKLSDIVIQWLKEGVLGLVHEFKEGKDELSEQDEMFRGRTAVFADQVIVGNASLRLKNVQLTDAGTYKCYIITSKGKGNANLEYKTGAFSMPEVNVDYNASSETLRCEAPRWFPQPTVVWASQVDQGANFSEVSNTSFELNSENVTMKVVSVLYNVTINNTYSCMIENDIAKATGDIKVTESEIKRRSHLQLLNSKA
Experimental: 4.2 Measurement of Affinity of the Npsc-A8 scFv [0142] (1) ELISA plate was placed in a clean bench, and activated under UV irradiation for more than 30 mins. Human B7-H4 protein (Sinobiological, a catalog number: 10738-HO8H-100) was coated onto wells of the ELISA plate overnight at 4° C. at 2 μg/mL. The Npsc-A8 single-chain antibody was diluted to 20 μg/mL, 10 μg/mL, 7.5 μg/mL, 5 μg/mL, 2.5 μg/mL, 1 μg/mL, 0.5 μg/mL, 0.25 μg/mL, 0.1 μg/mL, and 0.05 μg/mL, which were respectively added to wells in 100 μL per well. [0143] (2) The remaining steps were conducted according to steps (7) to (14) in Example 3. [0144] (3) The OD450 nm value was measured. A standard curve was plotted, and the EC₅₀ value was obtained.

[3] = biological target: T3, mouse B7-H4 IgC-like domain protein (from a laboratory of Fujian Medical University) (mouse, UniProt Q7TSP5 153-241, limits assumed); test: ELISA, protein coated at 2 µg/mL
T3 construct: domain: IgC-like domain
T3 sequence (looked up): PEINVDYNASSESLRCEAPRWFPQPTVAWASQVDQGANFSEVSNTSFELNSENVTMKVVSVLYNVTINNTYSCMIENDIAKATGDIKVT
Experimental: (1) A 96-well ELISA plate was placed in a clean bench, and activated under UV irradiation for more than 30 mins. The human B7-H4 protein (Sinobiological, a catalog number: 10738-HO8H-100), mouse B7-H4 protein (from a laboratory of Fujian Medical University), mouse B7-H4 IgV-like domain protein (from a laboratory of Fujian Medical University), and mouse B7-H4 IgC-like domain protein (from a laboratory of Fujian Medical University) were respectively coated onto wells of the 96-well ELISA plate at a concentration of 2 μg/mL, and incubated at 4° C. overnight. The Npsc-A8 full-length antibody protein obtained in Example 5 was diluted to 10 μg/mL with PBS buffer, and added to wells in 100 μL per well. [0165] (2) The remaining steps were conducted according to steps (6) to (13) in Example 3. 6H3 and 8H4 were used as control antibodies. 6H3 is a mouse anti-human B7-H4 IgC domain antibody, referring to patent application publication number CN 104955475 A. 8H4 is a hamster anti-human B7-H4 IgV domain antibody, referring to DOI: 10.1016/s1074-7613 (03) 00152-3. [0166] (3) OD450 nm value was measured.

[4] = biological target: T1, mouse B7-H4 on cells (MC38-mH4 and …); test: flow cytometry on MC38-mH4 and E.G7-OVA-mH4 cells; the filing adds that at the same concentration it binds human tumor cells at a higher affinity than mouse tumor cells
Experimental: A negative control tube was added with 50 μL of negative single-chain antibody, which was the monoclonal single-chain antibody that was negative in ELISA in Example 3. Tubes to be tested were respectively added with 50 μL of antibody candidates (i.e., Npsc-A8, Npsc-E7, Npsc-G10). The mixture in tubes was fully mixed, and incubated at 4° C. for 30 mins. During the incubation, the tubes were shaken every 10 mins to allow the cells to be fully reacted with the antibodies. [0128] (4) Washing of cells: An appropriate amount of PBS containing 1% (v/v) FBS was added to each tube. The tubes were centrifuged at 2000 rpm for 3 mins, and the supernatant was discarded. [0129] (5) Resuspension of cells: The cells in each tube were resuspended in 100 μL of PBS containing 1% FBS. [0130] (6) Incubation with secondary antibody: An appropriate amount of fluorescently labeled secondary antibody was added to the isotype control tube and the test tubes, mixed thoroughly, and incubated at 4° C. in the dark for 30 mins. During the incubation, the tubes were shaken every 10 mins. [0131] (7) Washing of cells: 2 mL PBS was added to each tube, the tubes were centrifuged at 2000 rpm for 3 mins, and the supernatant was discarded. This process was conducted twice. [0132] (8) On-machine testing: Cells in each tube were resuspended in 200 μL PBS. […]

B1: Npsc-A8 single-chain antibody (scFv, V domains shown)
VH: QVQLQESGGGLMQVGGSLRLSCTASGFVFGDYGMNWVRQAPGKGLEWVSLIDTYGASTFYADSVKGRFTISRDNSKQTVFLQMDGLRADDTAMYFCAKPILMFPAFDLWGPGTMVTVSS
VL: DVVMTQSPSSLSASVGDRVTITCRASQGIRNDLAWYQKKPGKAPKRLIYAASSLQSGVPSRFSGSGYGAEFSLTISSLQPEDFATYFCLHHSQYPWTFGQGTKVDIK
notes: Soluble scFv from a phage display human natural scFv library; also called Npsc-A8 scFv; not shown: The scFv linker between the two variable domains, the domain order, and the tag detected with the anti-HA-tag antibody
binding result [1]: binds | EC50 [2]: 2.02 µg/mL

B2: Npsc-A8 full-length antibody (antibody, V domains shown)
VH: QVQLQESGGGLMQVGGSLRLSCTASGFVFGDYGMNWVRQAPGKGLEWVSLIDTYGASTFYADSVKGRFTISRDNSKQTVFLQMDGLRADDTAMYFCAKPILMFPAFDLWGPGTMVTVSS
VL: DVVMTQSPSSLSASVGDRVTITCRASQGIRNDLAWYQKKPGKAPKRLIYAASSLQSGVPSRFSGSGYGAEFSLTISSLQPEDFATYFCLHHSQYPWTFGQGTKVDIKR
notes: also called Npsc-A8 antibody
binding result [3]: no binding (tested: 10 µg/mL) | binding result [4]: binds

Source: patent US20260274959A1 (FUJIAN MEDICAL UNIVERSITY, published 2026)
